The test system of experiment [1] is squamous cervix (A431) line. The experiment in a line: cells. Conditions: Homo sapiens, A-431, read-out: IC50, in vitro cytotoxicity.
Experiment [2] has as its target human serum albumin (HSA) (Homo sapiens, UniProt P02768). Put plainly: peptide phage display library screening (panning). The format is binding. Particulars: for assessment of sequence after fourth round of panning: about 100 plaques sequenced, FIG. 11. As to the method: A commercial peptide phage display library (12-mer peptides in M13) was screened for peptides which bind to human serum albumin (HSA) (see FIG. 10). Four rounds of panning were completed as follows:
1. The phage library was screened by coating a 100 ug/ml HSA solution onto the wells of 12-well plate and exposing the wells to 1-2×1011 pfu phage. Bound phage were eluted with a 0.2M Glycine, pH2.2 buffer to yield 15×10^5 pfu/ml (which became 5×1013 pfu/ml after amplification);
2. The second panning was eluted with a 0.2M Glycine, pH 2.2 buffer to yield 12×10^6 pfu/ml (8×1013 pfu/ml after amplification);
3. The third panning was eluted with 250 ug/ml HSA for 1 hr to yield 5×10^5 pfu/ml (2×1012 pfu/ml after amplification); and
4. a fourth panning was eluted with a 0.2M Glycine, pH2.2 buffer to yield 14×10^8 pfu/ml. After the fourth round of panning, about 100 plaques were selected, amplified and sequenced.

For experiment [3], the target named is binding of albumin to SPARC (Homo sapiens, UniProt P02768). The experiment in a line: competitive binding assays with SPARC C-terminal cysteine-poor domain peptides. Conditions: general statement in the description. The protocol: The 15 mer SPARC C-terminal, cysteine-poor domain-spanning peptides were used in competitive binding assays. Specifically, the SPARC peptides were immobilized onto PVDF-attached 96 well plate in an overnight incubation at 4° C. (5 μg/well). The next day the plate was washed with DPBS and blocked for an hour with 5% Non-fat dry milk in DPBS. Next, 100 μl of DPBS was added to each well except the wells in first row. A vial of Alexa 488-BSA (5 mg) was dissolved with 1.2 ml of 25% HSA. Then, 100 μl of BSA-HSA was mixed with 100 μl of SPARC peptides prepared as 4 mg/ml in DPBS (resulting in a final concentration of the Alexa 488-BSA and peptides in first row of about 200 ug/well each). Serial dilution was made down to each column. The plate was incubated for an hour in a dark place, was washed, and the fluorescence was read. […] To further localize the SPARC albumin binding site SPARC sub-fragments were made (FIG. 8). In particular, peptides #103 ([…]) (SEQ ID NO: 66) and #104 ([…]) are subfragments of the sole active peptide, peptide #47.

The subject of experiment [4] is human serum albumin spiked with Alexa fluor 488 conjugated bovine serum albumin. The experiment in a line: SPARC-albumin interaction: SPARC immobilized on PVDF, fluorescent albumin binding. Conditions: for albumin binding: polypeptide immobilized 5 μg/well on PVDF, FIG. 2. The protocol: Full length, wild-type SPARC (“WT”), a SPARC deletion mutant in which the glutamine at residue 3 is deleted (“Q3”) or SPARC treated with Cathepsin K were immobilized on PVDF membrane and exposed to decreasing concentrations of human serum albumin spiked with Alexa fluor 488 conjugated bovine serum albumin.
In the initial experiment, full length, wild-type SPARC and “Q3” mutant SPARC polypeptides were immobilized onto PVDF-attached 96 well plate by overnight at 4° C. incubation (5 μg/well). The next day the plate was washed with DPBS and blocked for an hour with 5% non-fat dry milk in DPBS. 100 μl of DPBS was added to each well. A vial of Alexa 488-BSA (5 mg) was dissolved with 1.2 ml of 25% Human Serum Albumin (“HSA”) and 100 μl of BSA-HSA mix was added to wells of first row of plate (resulting in a final concentration of Alexa 488-BSA in first row becomes about 200 μg/well). Serial dilutions were made down each column and the plate was incubated for an hour in a dark place. After 1 hr incubation, the membrane was washed with PBS and the amount of albumin remained quantified by fluorescent plate reader.
Thirty μg of recombinant human (“rh”) SPARC was incubated with 0.4 μg of Cathepsin K for 10, 30, 60 and 120 minutes. […] Accordingly, overlapping 15 mer peptides were prepared which spanned the SPARC C-terminal, cysteine-poor domain (FIG. 6).

The target in a further experiment is T1, albumin binding to SPARC (Homo sapiens, UniProt P09486).
T1 construct: Full length, wild-type SPARC (“WT”)
T1 sequence (P09486 18-303): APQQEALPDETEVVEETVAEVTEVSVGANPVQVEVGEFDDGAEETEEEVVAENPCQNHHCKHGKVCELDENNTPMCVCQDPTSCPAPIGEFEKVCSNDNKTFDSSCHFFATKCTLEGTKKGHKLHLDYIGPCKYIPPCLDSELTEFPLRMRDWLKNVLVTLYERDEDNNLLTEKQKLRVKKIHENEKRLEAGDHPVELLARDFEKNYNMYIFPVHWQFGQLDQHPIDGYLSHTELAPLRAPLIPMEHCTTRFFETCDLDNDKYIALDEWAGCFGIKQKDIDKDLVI
The experiment in a line: follow-up competitive studies of albumin binding to SPARC.

Another experiment deals with T2, human serum albumin (human, UniProt P02768 25-609).
T2 construct: also called HSA; human albumin
The experiment in a line: M13 12-mer phage display, four rounds of panning on coated HSA, sequencing of about 100 plaques.

Values after ≈ are worked out from the molar mass of the structure shown.

Broadly, the IC50 is the concentration that gives 50% inhibition. As to `CC(=O)O[C@H]1C(=O)[C@@]2(C)[C@H]([C@H](OC(=O)c3ccccc3)[C@]3(O)C[C@H](OC(=O)[C@H](O)[C@@H](NC(=O)c4ccccc4)c4ccccc4)C(C)=C1C3(C)C)[C@]1(OC(C)=O)CO[C@@H]1C[C@@H]2O` [TAX], in experiment [1], the IC50 came out at 0.012 µg/mL (≈ 0.0141 µM).

Take “KNHGATRTTRAS [SEQ ID NO: 2, called Peptide 47 in b190]”: the “assessment of sequence after fourth round of panning” value in experiment [2] is reported as “probably be a true ligand”. The “binding to human albumin” value in experiment [2] (general statement in the description) is listed as “binds human albumin with great avidity”.

Consider “MYIFPVHWQFGQLDQ [peptide #47, 15 mer, amino acids 209-223 of the human SPARC protein]”, for which, in experiment [3], the “binding to human albumin” value was “binds human albumin with great avidity”.

Consider WPHHHHTRLSTV, for which, in experiment [2], the “assessment of sequence after fourth round of panning” value was “nonspecific binding”.

B1: SPARC: Secreted Protein, Acidic, Rich in Cysteines; full length, wild-type, 303 amino acid glycoprotein (protein)
chain: T1 sequence (P09486 18-303)
Consider B1, for which the “albumin binding after cathepsin K digest” value in experiment [4] (cathepsin K digest 60 min, FIG. 5) is reported as “obliterated”. Besides, the albumin binding entry in experiment [4] is “bind albumin”. In addition, in the experiment with albumin binding to SPARC, the “IC50 of albumin binding to SPARC” value came to 5%.

B2: Q3: SPARC deletion mutant in which the glutamine at residue 3 is deleted (protein)
chain: APQEALPDETEVVEETVAEVTEVSVGANPVQVEVGEFDDGAEETEEEVVAENPCQNHHCKHGKVCELDENNTPMCVCQDPTSCPAPIGEFEKVCSNDNKTFDSSCHFFATKCTLEGTKKGHKLHLDYIGPCKYIPPCLDSELTEFPLRMRDWLKNVLVTLYERDEDNNLLTEKQKLRVKKIHENEKRLEAGDHPVELLARDFEKNYNMYIFPVHWQFGQLDQHPIDGYLSHTELAPLRAPLIPMEHCTTRFFETCDLDNDKYIALDEWAGCFGIKQKDIDKDLVI
As to B2, the albumin binding entry in experiment [4] was “bind albumin”.

As for KNHGATRTTRAS [KNHGATRTTRAS (Peptide 47; SEQ ID NO: 2)], in the experiment with human serum albumin, the binding result was “binds”.
